Target: linear triubiquitin (UniProt P0CG48)
Assay: BLI

Sequence of linear triubiquitin (P0CG48 1-228): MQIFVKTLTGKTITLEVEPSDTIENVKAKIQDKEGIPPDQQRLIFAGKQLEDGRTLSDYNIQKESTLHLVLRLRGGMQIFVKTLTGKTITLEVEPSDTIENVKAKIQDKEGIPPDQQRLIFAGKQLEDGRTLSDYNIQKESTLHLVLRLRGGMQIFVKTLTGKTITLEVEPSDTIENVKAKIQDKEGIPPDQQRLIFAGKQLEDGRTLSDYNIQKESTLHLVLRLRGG

binding result: binds
B1: singly biotinylated A20 zinc finger 7 (ZnF7: P758-G790) (domain or fragment)
chain: PKQRCRAPACDHFGNAKCNGYCNECFQFKQMYG
modifications: biotin (singly biotinylated)
